# B1: Saccharomyces cerevisiae vacuolar transient receptor potential yeast 1 (TRPY1) channel, full length, wild type (natural protein, UniProt Q12324 1-675, looked up)
# chain: MVSANGDLHLPISNEQCMPENNGSLGFEAPTPRQILRVTLNLKYLIDKVVPIVYDPNDIVCDHSEILSPKVVKLAYEACGGNPKDKANKRKYQSVIIFSLLKVCEWYSILATMEVHNAKLYETRNLASQQLCKLLIEREETRDLQFLFMQLLLRRYVINENDEDQEPLNALELATDMHCTTVIGSSGFQRCLKWIWRGWIVQNGLDPTTFIKDDSLAEVSLISHFNPVRLKAPVYQNYLQMIFSFLFLGLYTLVVNGKDSERVQSFDLLESIFYVFNTGFILDELTKLYYIGYAHLSFWNLFNDTTYLIITFAMGFRAMSVTPLNAKYSSEDWDKISYRVLSCAAPFVWSRLLLYLESQRFIGIMLVILKHMMKESIVFFFLLFLIMIGFTQGFLGLDSADGKRDITGPILGNLTITVLGLGSFDVFEEFAPPYAAILYYGYYFIVSVILLNILIALYSTAYQKVIDNADDEYMALMSQKTLRYIRAPDEDVYVSPLNLIEVFMTPIFRILPPKRAKDLSYTVMTIVYSPFLLLISVKETREARRIKYNRMKRLNDDANEYDTPWDLTDGYLDDDDGLFSDNRNSGMRATQLKNSRSLKLQRTAEQEDVHFKVPKKWYKNVKKCSPSFEQYDNDDTEDDAGEDKDEVKELTKKVENLTAVITDLLEKLDIKDKKE
# Biological target: the molecule itself
# Assay: cryo-EM structure
protein,measurement,value
B1,stoichiometry N,4
